Among the data in paper PMC4414246 are Kd and binding signal values, retold here.

Experiment in all cases: fluorescence polarization
In general terms: In fluorescence polarisation assays a small probe gives low polarisation when free and higher when bound to something large.

The target of data set [1] is U1A M51N (UniProt P09012 10-89, M51N).
Data set [2] concerns the target U1A E19K (UniProt P09012 10-89, E19K).
For data set [3], the target named is U1A E19A:Y13Q (UniProt P09012 10-89, Y13Q;E19A).
Data set [4] deals with U1A L49N (UniProt P09012 10-89, L49N).
For data set [5], the target named is U1A S46A (UniProt P09012 10-89, S46A).
The target in data set [6] is dK50dM51 S46A (UniProt P09012 10-89, S46A;del50-51).
The target of data set [7] is dK50dM51 E19N (UniProt P09012 10-89, E19N;del50-51).
Data set [8] concerns the target U1A M51A:F56A (UniProt P09012 10-89, M51A;F56A).
Data set [9] concerns the target U1A L49A (UniProt P09012 10-89, L49A).
Data set [10] addresses U1A L49S (UniProt P09012 10-89, L49S).
Data set [11] deals with U1A E19N (UniProt P09012 10-89, E19N).
For data set [12], the target named is U1A E19A (UniProt P09012 10-89, E19A).
In data set [13] the target is U1A E19S:N15V (UniProt P09012 10-89, N15V;E19S).
Data set [14] deals with U1A L49A:N15V (UniProt P09012 10-89, N15V;L49A).
Data set [15] addresses U1A L49K (UniProt P09012 10-89, L49K).
Data set [16] addresses dK50dM51 E19K (UniProt P09012 10-89, E19K;del50-51).
Data set [17] has as its target dK50dM51 L49A (UniProt P09012 10-89, L49A;del50-51).
Data set [18] deals with U1A E19F:Y13Q (UniProt P09012 10-89, Y13Q;E19F).
Data set [19] deals with U1A L49A:E19A (UniProt P09012 10-89, E19A;L49A).
Data set [20] has as its target U1A K50A (UniProt P09012 10-89, K50A).
Data set [21] deals with U1A L49A:F56A (UniProt P09012 10-89, L49A;F56A).
Data set [22] has as its target U1A E19F:N15V (UniProt P09012 10-89, N15V;E19F).
Data set [23] has as its target U1A M51S (UniProt P09012 10-89, M51S).
The target of data set [24] is U1A E19S (UniProt P09012 10-89, E19S).

B1: TAR RNA (structured_RNA)
RNA: GGCAGAUCUGAGCCUGGGAGCUCUCUGCC
Consider B1, for which the Kd in data set [1] came to 13.8 ± 1.6 µM; in data set [2], 5.9 ± 0.4 µM; in data set [3], 21.7 ± 5.3 µM; in [4] it was 14.4 ± 2.1 µM; in data set [5] it was 15.1 ± 2.6 µM; in data set [6], 24.5 ± 6 µM. The Kd in data set [7] was 27.8 ± 3.2 µM; in [8] it was 177 ± 98.2 µM; in data set [9] it was 5.2 ± 0.5 µM; in [10] it was 12.4 ± 2.3 µM; in [11], 12 ± 0.9 µM; in data set [12] it was 5.9 ± 0.8 µM. The Kd in [13] came out at 11.3 ± 0.8 µM; in [14], 39.2 ± 9.6 µM; in [15], 3.9 ± 0.4 µM; in data set [16], 6.3 ± 1 µM; in data set [17], 91.6 ± 39.7 µM; in [18] it was 58 ± 24.1 µM. In addition, the Kd was found to be 6.9 ± 0.8 µM in data set [19]; 39.6 ± 12.2 µM in data set [20]; 123 ± 38.7 µM in data set [21]; 19 ± 2.5 µM in [22]; 29.9 ± 5.7 µM in data set [23]. Moreover, the binding signal in data set [24] is ~1.6 fold lower affinity than without tRNA.

One may read the Kd as a measure of binding affinity in units of concentration. The low end stands for higher affinity, the high end for lower affinity.
